For test [1], the target named is T1, human PD-1 expressed on the surface of cells (NSO cells expressing human PD-1; MNFAT-luc2/PD-1 Jurkat cells) (human, UniProt Q15116 21-288).
T1 construct: also called cell surface PD-1; PDCD1 transfected NSO cells expressing PD-1
Briefly: FACS saturation binding to NSO cells expressing PD-1; SM; SD 0.5742.

Test [2] has as its target T2, human LAG-3 expressed on NSO cells (human, UniProt P18627 29-525).
T2 sequence: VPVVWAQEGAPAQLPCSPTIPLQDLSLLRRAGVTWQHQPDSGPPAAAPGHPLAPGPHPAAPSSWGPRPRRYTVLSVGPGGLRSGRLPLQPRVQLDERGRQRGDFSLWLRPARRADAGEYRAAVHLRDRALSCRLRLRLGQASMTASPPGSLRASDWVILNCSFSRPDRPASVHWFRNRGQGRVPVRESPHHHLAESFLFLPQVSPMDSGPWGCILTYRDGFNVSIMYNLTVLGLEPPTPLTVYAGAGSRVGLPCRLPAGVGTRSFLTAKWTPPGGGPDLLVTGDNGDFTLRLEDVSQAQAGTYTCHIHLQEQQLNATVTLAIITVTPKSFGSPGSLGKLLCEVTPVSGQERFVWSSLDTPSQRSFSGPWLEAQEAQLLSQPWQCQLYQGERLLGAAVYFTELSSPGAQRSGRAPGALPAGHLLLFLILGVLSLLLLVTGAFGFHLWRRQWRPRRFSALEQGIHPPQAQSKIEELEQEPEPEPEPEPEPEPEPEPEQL
Briefly: FACS saturation binding to NSO cells expressing LAG-3; SM; SD 0.8075.

In test [3] the target is T1, human PD-1 expressed on the surface of …. Briefly: FACS: inhibition of sPD-L2 binding to PD-1 on NSO cells; SM; SD 0.7736. On the technique in general: A flow cytometer gives signals particle by particle.
In test [4] the target is T3, biotinylated-soluble human LAG-3-Fc fusion protein (human, UniProt P18627 23-450, biotinylated (site not stated)).
T3 construct: whole entry named; also called shLAG-3; shLAG-3-Fc; not shown: Fc
T3 sequence: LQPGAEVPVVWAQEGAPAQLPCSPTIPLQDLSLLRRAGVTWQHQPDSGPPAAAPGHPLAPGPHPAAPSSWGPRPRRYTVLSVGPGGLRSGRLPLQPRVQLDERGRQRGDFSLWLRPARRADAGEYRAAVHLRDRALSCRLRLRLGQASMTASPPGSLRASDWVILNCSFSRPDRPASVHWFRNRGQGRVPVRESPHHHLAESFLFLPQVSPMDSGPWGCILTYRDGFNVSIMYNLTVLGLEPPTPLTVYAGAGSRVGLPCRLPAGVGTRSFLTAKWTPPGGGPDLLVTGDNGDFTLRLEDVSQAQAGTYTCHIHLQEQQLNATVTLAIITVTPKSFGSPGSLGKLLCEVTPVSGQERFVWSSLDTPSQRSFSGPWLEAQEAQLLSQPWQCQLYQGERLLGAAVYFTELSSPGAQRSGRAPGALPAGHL
Briefly: FACS: inhibition of shLAG-3-Fc binding to MHC II on Daudi cells (column head prints EC50); SM; SD 2.9177.

The target in test [5] is T1, human PD-1 expressed on the surface of …. Briefly: FACS: inhibition of sPD-L1 binding to PD-1 on NSO cells; SM; SD 0.3307.
Test [6] concerns the target T2, human LAG-3 expressed on NSO cells. Briefly: FACS saturation binding to NSO cells expressing LAG-3; single experiment.
Test [7] deals with T1, human PD-1 expressed on the surface of …. Briefly: FACS saturation binding to NSO cells expressing PD-1; single experiment.
Test [8] has the same target. Briefly: FACS: inhibition of sPD-L2 binding to PD-1 on NSO cells; SM; SD 0.3154.
Test [9] has the same target. Briefly: FACS: inhibition of sPD-L1 binding to PD-1 on NSO cells; SM; SD 0.0007.
Test [10] addresses T3, biotinylated-soluble human LAG-3-Fc …. Briefly: FACS: inhibition of shLAG-3-Fc binding to MHC II on Daudi cells (column head prints EC50); SM; SD 0.1104.
Test [11] has as its target T2, human LAG-3 expressed on NSO cells. Briefly: FACS saturation binding to NSO cells expressing LAG-3; SM; SD 0.5326.
Test [12] has as its target T1, human PD-1 expressed on the surface of …. Briefly: FACS: inhibition of sPD-L1 binding to PD-1 on NSO cells; SM; SD 0.1692.
Test [13] addresses T3, biotinylated-soluble human LAG-3-Fc …. Briefly: FACS: inhibition of shLAG-3-Fc binding to MHC II on Daudi cells (column head prints EC50); SM; SD 1.1398.
In test [14] the target is T1, human PD-1 expressed on the surface of …. Briefly: FACS saturation binding to NSO cells expressing PD-1; SM; SD 0.4140.
Test [15] has the same target. Briefly: FACS: inhibition of sPD-L2 binding to PD-1 on NSO cells; SM; SD 0.5869.

T1 sequence (Q15116 21-288): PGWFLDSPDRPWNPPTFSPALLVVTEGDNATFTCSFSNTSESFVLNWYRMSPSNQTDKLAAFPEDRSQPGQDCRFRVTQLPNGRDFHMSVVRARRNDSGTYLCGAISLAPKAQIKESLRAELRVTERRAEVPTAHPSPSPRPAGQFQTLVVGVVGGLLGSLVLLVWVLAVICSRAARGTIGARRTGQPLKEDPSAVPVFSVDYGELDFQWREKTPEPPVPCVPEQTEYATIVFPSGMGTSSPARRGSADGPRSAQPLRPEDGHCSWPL

B1: DART E (bispecific antibody, human IgG4 S228P, kappa)
chain 1: DIVMTQTPLSLSVTPGQPASISCKSSQSLLHSDAKTYLNWLLQKPGQPPERLIYLVSELDSGVPDRFSGSGSGTDFTLKISRVEAEDVGVYYCWQGTHFPYTFGGGTKVEIKGGGSGGGGQVQLVQSGAEVKKPGASVKVSCKASGYSFTSYWMNWVRQAPGQGLEWIGVIHPSDSETWLDQKFKDRVTITVDKSTSTAYMELSSLRSEDTAVYYCAREHYGTSPFAYWGQGTLVTVSSLGGGSGASTKGPSVFPLAPCSRSTSESTAALGCLVKDYFPEPVTVSWNSGALTSGVHTFPAVLQSSGLYSLSSVVTVPSSSLGTKTYTCNVDHKPSNTKVDKRVESKYGPPCPPCPAPEFLGGPSVFLFPPKPKDTLYITREPEVTCVVVDVSQEDPEVQFNWYVDGVEVHNAKTKPREEQFNSTYRVVSVLTVLHQDWLNGKEYKCKVSNKGLPSSIEKTISKAKGQPREPQVYTLPPSQEEMTKNQVSLTCLVKGFYPSDIAVEWESNGQPENNYKTTPPVLDSDGSFFLYSRLTVDKSRWQEGNVFSCSVMHEALHNHYTQKSLSLSLG
chain 2: EIVLTQSPATLSLSPGERATLSCRASESVDNYGMSFMNWFQQKPGQPPKLLIHAASNQGSGVPSRFSGSGSGTDFTLTISSLEPEDFAVYFCQQSKEVPYTFGGGTKVEIKGGGSGGGGQVQLVQSGAEVKKPGASVKVSCKASGYTFTNYGMNWVRQAPGQGLEWMGWINTYTGESTYADDFEGRFVFSMDTSASTAYLQISSLKAEDTAVYYCARESLYDYYSMDYWGQGTTVTVSSLGGGSGRTVAAPSVFIFPPSDEQLKSGTASVVCLLNNFYPREAKVQWKVDNALQSGNSQESVTEQDSKDSTYSLSSTLTLSKADYEKHKVYACEVTHQGLSSPVTKSFNRGEC
One may read the EC50 as the concentration at which the effect is half-maximal. A higher EC50 goes with a need for much substance. Broadly, the IC50 is the concentration that inhibits the measured activity by half. As for B1, the EC50 in test [1] was 3220 nM; in test [2], 925 nM. The IC50 in [3] was found to be 2950 nM; in test [4], 3270 nM; in test [5], 1650 nM.

B2: DART B (bispecific antibody, human IgG4 S228P)
chain 1: DIVMTQTPLSLSVTPGQPASISCKSSQSLLHSDGKTYLNWLLQKPGQPPERLIYLVSELDSGVPDRFSGSGSGTDFTLKISRVEAEDVGVYYCWQGTHFPYTFGGGTKVEIKGGGSGGGGQVQLVQSGAEVKKPGASVKVSCKASGYSFTSYWMNWVRQAPGQGLEWIGVIHPSDSETWLDQKFKDRVTITVDKSTSTAYMELSSLRSEDTAVYYCAREHYGTSPFAYWGQGTLVTVSSGGCGGGEVAACEKEVAALEKEVAALEKEVAALEKESKYGPPCPPCPAPEFLGGPSVFLFPPKPKDTLYITREPEVTCVVVDVSQEDPEVQFNWYVDGVEVHNAKTKPREEQFNSTYRVVSVLTVLHQDWLNGKEYKCKVSNKGLPSSIEKTISKAKGQPREPQVYTLPPSQEEMTKNQVSLTCLVKGFYPSDIAVEWESNGQPENNYKTTPPVLDSDGSFFLYSRLTVDKSRWQEGNVFSCSVMHEALHNHYTQKSLSLSLG
chain 2: EIVLTQSPATLSLSPGERATLSCRASESVDNYGMSFMNWFQQKPGQPPKLLIHAASNQGSGVPSRFSGSGSGTDFTLTISSLEPEDFAVYFCQQSKEVPYTFGGGTKVEIKGGGSGGGGQVQLVQSGAEVKKPGASVKVSCKASGYTFTNYGMNWVRQAPGQGLEWMGWINTYTGESTYADDFEGRFVFSMDTSASTAYLQISSLKAEDTAVYYCARESLYDYYSMDYWGQGTTVTVSSGGCGGGKVAACKEKVAALKEKVAALKEKVAALKE
As a reminder, the EC90 is the concentration at which the effect reaches the 90% level. A low value points to an effect from little substance. B2: the figures for the EC50 in [6] and in test [7] were 1080 nM and 1760 nM, respectively. The molecule also came in with an EC90 in test [7] of 12300 nM. Moreover, the IC50 was 2120 nM in test [8], 1150 nM in test [9] and 408 nM in test [10].

B3: DART D (bispecific antibody, human IgG4 S228P, kappa)
chain 1: EIVLTQSPATLSLSPGERATLSCRASESVDNYGMSFMNWFQQKPGQPPKLLIHAASNQGSGVPSRFSGSGSGTDFTLTISSLEPEDFAVYFCQQSKEVPYTFGGGTKVEIKGGGSGGGGQVQLVQSGAEVKKPGASVKVSCKASGYTFTNYGMNWVRQAPGQGLEWMGWINTYTGESTYADDFEGRFVFSMDTSASTAYLQISSLKAEDTAVYYCARESLYDYYSMDYWGQGTTVTVSSLGGGSGASTKGPSVFPLAPCSRSTSESTAALGCLVKDYFPEPVTVSWNSGALTSGVHTFPAVLQSSGLYSLSSVVTVPSSSLGTKTYTCNVDHKPSNTKVDKRVESKYGPPCPPCPAPEFLGGPSVFLFPPKPKDTLYITREPEVTCVVVDVSQEDPEVQFNWYVDGVEVHNAKTKPREEQFNSTYRVVSVLTVLHQDWLNGKEYKCKVSNKGLPSSIEKTISKAKGQPREPQVYTLPPSQEEMTKNQVSLTCLVKGFYPSDIAVEWESNGQPENNYKTTPPVLDSDGSFFLYSRLTVDKSRWQEGNVFSCSVMHEALHNHYTQKSLSLSLG
chain 2: DIVMTQTPLSLSVTPGQPASISCKSSQSLLHSDAKTYLNWLLQKPGQPPERLIYLVSELDSGVPDRFSGSGSGTDFTLKISRVEAEDVGVYYCWQGTHFPYTFGGGTKVEIKGGGSGGGGQVQLVQSGAEVKKPGASVKVSCKASGYSFTSYWMNWVRQAPGQGLEWIGVIHPSDSETWLDQKFKDRVTITVDKSTSTAYMELSSLRSEDTAVYYCAREHYGTSPFAYWGQGTLVTVSSLGGGSGRTVAAPSVFIFPPSDEQLKSGTASVVCLLNNFYPREAKVQWKVDNALQSGNSQESVTEQDSKDSTYSLSSTLTLSKADYEKHKVYACEVTHQGLSSPVTKSFNRGEC
Take B3: the EC50 in [11] worked out at 898 nM; in [14], 2230 nM. Besides, the IC50 in test [12] was determined as 1550 nM; in test [13], 1180 nM; in test [15], 3130 nM.

The record behind these values is patent US12534531 (MacroGenics, dated 2026).
